Test results published in publication PMC4714512.

Biological target: Human histone H3.5 (human) (UniProt Q6NXT2)
Assay: native gel or EMSA; nucleosomes reconstituted with 146 base-pair human alpha-satellite DNA by salt dialysis from 2 M KCl, heated at 55 °C for 2 h, purified by preparative non-denaturing PAGE; analysed by non-denaturing 6 % PAGE and 18 % SDS-PAGE (histone composition)

Substance	stoichiometry N
Human histone H2B (from UniProt P06899 1-126) (natural protein)	1
Human histone H2A (from UniProt P04908 1-130) (natural protein)	1
Human histone H4 (from UniProt P62805 1-103) (natural protein)	1
